B1: anti-CD47 antibody 5F9 (antibody, human IgG1, V domains shown)
VH: QVQLVQSGAEVKKPGASVKVSCKASGYTFTNYNMHWVRQAPGQRLEWMGTIYPGNDDTSYNQKFKDRVTITADTSASTAYMELSSLRSEDTAVYYCARGGYRAMDYWGQGTLVTVSS
VL: DIVMTQSPLSLPVTPGEPASISCRSSQSIVYSNGNTYLGWYLQKPGQSPQLLIYKVSNRFSGVPDRFSGSGSGTDFTLKISRVEADVGVYYCFQGSHVPYTFGQGTKLEIK
notes: Variable regions cloned on human IgG1 / human kappa constant regions; also called 5F9/5F9; KT14
B2: anti-EGFR antibody necitumumab (antibody, human IgG1, kappa, V domains shown)
VH: QVQLQESGPGLVKPSQTLSLICTVSGGSISSGDYYWSWIRQPPGKGLEWIGYIYYSGSTDYNPSLKSRVTMSVDTSKNQFSLKVNSVTAADTAVYYCARVSIFGVGTFDYWGQGTLVTVSS
VL: EIVMTQSPATLSLSPGERATLSCRASQSVSSYLAWYQQKPGQAPRLLIYDASNRATGIPARFSGSGSGTDFTLTISSLEPEDFAVYYCHQYGSTPLTFGGGTKAEIKR
notes: Heavy chain copied as printed in T0103; also called KT3-2

Assays:
[1] = molecular target: T1, human CD47-Fc fusion protein (R&D systems) (human, UniProt Q08722 19-141); experiment: ELISA, plate coated with human CD47-Fc; set-up: Bmax: unit not given here
T1 construct: Bought (R&D systems); also called Fc-tagged CD47; not shown: Fc part of the bought fusion protein

human CD47 on cells [2] = molecular target: T2, human CD47 on cells (human, UniProt Q08722 19-323); experiment: flow cytometry on human red blood cells (h408 RBC), Alexa Fluor 647 channel
T2 construct: also called KT14 (target name); leukocyte surface antigen CD47

[3] = molecular target: T3, cynomolgus CD47 on erythrocytes (cynomolgus, UniProt A0A5F8AK49 19-323 (rhesus entry)); experiment: flow cytometry on cynomolgus red blood cells (cy807 RBC), Alexa Fluor 647 channel
T3 construct: whole, on cells; also called cynomolgus RBCs

human CD47 on cells [4] = molecular target: T2, human CD47 on cells; experiment: flow cytometry on 293T_ABCB1_OX cells (anti-CD47 antibody; CD47 is endogenous on 293T cells); 293T_ABCB1_OX cells, endogenous CD47
[5] = molecular target: T4, EGFR on 293T cells overexpressing EGFR (UniProt P00533 25-1210, limits assumed); experiment: FACS on 293T cells overexpressing EGFR
T4 construct: whole, on cells

[6] = molecular target: T4, EGFR on 293T cells overexpressing EGFR; experiment: FACS on 293T-EGFR OX cells

Binder	Bmax [1]	Kd [1] [nM]	R4 (percent of red blood cells in the positive gate R4) (human CD47 on cells [2]) [%]	R4 (percent of red blood cells in the positive gate R4) [3] [%]	EC50 (human CD47 on cells [4]) [nM]	EC50 [5] [nM]	EC50 [6] [nM]
B1	2.78	0.00197	99.9	99.8	0.3		
B2						0.044	0.13

From patent US20220204627A1 (WILLIAM ROBERT ARATHOON LIVING TRUST DATED AUGUST 29 2016, published 2022)
